One test addresses T1, GalacTag7_fHbp (Neisseria meningitidis serogroup B / …, UniProt E6MV22 32-274).
T1 construct: Fusion of a GBS BP-2a tag peptide with N. meningitidis fHbp variant 1.1
T1 sequence: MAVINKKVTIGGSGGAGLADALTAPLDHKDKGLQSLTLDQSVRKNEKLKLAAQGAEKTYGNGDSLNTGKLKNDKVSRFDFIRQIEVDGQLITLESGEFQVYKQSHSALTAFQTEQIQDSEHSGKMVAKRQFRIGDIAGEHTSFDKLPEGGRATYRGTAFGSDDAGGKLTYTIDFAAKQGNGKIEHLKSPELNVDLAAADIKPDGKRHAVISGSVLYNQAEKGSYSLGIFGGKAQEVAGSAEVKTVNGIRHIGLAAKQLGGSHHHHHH
Put plainly: mixed in vitro at room temperature ~16 h, SDS-PAGE.

Test [1] addresses T2, GalacTag6_GBSFerritinLMG14747.
T2 construct: Self-assembled ferritin nanoparticle displaying GalacTag6; also called GalacTag6 + Ferritin NP Subunit: LMG_14747
T2 chain: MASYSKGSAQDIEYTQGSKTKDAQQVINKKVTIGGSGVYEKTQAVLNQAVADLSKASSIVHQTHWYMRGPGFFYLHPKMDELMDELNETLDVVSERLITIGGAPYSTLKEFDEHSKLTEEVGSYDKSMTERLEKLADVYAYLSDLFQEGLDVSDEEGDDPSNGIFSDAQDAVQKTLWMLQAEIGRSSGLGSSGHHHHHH
In words: SDS-PAGE and HPLC-SEC (FIG. 4).

The target in test [2] is T3, GalacTag6_GBSFerritinDK-PW-092+N-terminal helix.
T3 construct: Self-assembled ferritin nanoparticle displaying GalacTag6; also called GalacTag6_GBSFerritinDK-PW-092+ helix; GalacTag6 + GBS ferritin NP subunit from DK-092-PW w/N-terminal helix
T3 chain: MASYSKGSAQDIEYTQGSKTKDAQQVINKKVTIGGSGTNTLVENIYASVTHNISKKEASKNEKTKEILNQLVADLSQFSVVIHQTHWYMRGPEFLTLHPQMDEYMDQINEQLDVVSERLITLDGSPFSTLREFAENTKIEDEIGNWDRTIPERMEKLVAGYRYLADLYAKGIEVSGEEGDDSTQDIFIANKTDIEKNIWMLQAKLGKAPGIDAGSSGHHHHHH
Put plainly: 1:1 mix with the nanoparticle, room temperature ~16 h, SDS-PAGE and HPLC-SEC (FIG. 6).

For test [3], the target named is T4, GalacTag6_fHbp.
T4 construct: Fusion of a GBS BP-2a tag peptide with N. meningitidis fHbp variant 1.1; also called GalacTag6_ffibp; wt GalacTag
T4 chain: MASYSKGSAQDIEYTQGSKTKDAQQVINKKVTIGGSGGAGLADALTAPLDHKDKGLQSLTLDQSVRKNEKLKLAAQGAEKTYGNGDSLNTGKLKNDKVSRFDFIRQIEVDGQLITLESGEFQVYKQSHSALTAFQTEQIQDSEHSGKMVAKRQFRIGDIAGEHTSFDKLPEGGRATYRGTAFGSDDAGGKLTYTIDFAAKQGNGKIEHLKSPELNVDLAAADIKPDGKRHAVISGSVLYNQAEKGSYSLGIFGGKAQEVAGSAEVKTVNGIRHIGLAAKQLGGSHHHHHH
In words: 1:1 molar mix, room temperature ~16 h, SDS-PAGE.
Experimental: (§1) Each GalacDock/GalacTag pair was mixed in vitro at a 1:1 molar ratio at room temperature for approximately 16 hours, and samples were then subjected to SDS-PAGE electrophoresis.

Test [4] concerns the target T5, GalacTag6_GBSFerritinDK-PW-092.
T5 construct: also called GalacTag6 + GBS ferritin NP subunit from DK-092-PW
T5 chain: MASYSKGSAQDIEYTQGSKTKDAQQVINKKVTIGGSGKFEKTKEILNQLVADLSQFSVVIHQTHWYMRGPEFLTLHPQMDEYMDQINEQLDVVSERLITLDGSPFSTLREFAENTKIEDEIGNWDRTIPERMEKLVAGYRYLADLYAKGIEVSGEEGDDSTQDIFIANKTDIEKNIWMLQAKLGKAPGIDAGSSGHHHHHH
Put plainly: 1:1 mix with the nanoparticle, room temperature, SDS-PAGE and HPLC-SEC (FIGS. 5A, 5B).

For a further test, the target named is T6, GalacTag6_fHbp (N636A).
T6 construct: also called variant GalacTag6_fHbp
T6 chain: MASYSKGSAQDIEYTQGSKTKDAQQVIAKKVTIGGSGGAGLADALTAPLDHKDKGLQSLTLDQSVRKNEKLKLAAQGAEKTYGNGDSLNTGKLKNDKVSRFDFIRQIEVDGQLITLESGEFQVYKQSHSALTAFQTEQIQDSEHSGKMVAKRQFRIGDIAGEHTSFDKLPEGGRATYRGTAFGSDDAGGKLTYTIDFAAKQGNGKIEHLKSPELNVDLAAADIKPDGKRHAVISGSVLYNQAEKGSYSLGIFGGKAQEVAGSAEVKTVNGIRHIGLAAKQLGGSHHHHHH
In words: mixed in vitro at room temperature ~16 h, SDS-PAGE (FIG. 3A).

For test [5], the target named is T4, GalacTag6_fHbp. The test is described as above.
Experimental: (§2) Using these variant GalacDock6 and GalacTag6_fHbp polypeptides, pairs as shown in Table 3 were mixed in vitro at a 1:1 molar ratio at room temperature for approximately 16 hours, and samples were then subjected to SDS-PAGE electrophoresis.
A further test addresses T7, GalacTag5_fHbp (Neisseria meningitidis serogroup B / …, UniProt E6MV22 32-274).
T7 construct: Fusion of a GBS BP1 tag peptide with N. meningitidis fHbp variant 1.1
T7 sequence: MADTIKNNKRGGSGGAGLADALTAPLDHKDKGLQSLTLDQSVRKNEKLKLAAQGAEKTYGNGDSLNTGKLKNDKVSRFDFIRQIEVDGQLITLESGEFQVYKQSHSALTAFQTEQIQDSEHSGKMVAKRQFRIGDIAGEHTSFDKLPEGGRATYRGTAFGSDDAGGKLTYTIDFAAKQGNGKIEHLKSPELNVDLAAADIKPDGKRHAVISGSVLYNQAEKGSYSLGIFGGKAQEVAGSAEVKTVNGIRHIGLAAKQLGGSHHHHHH
In words: mixed in vitro at room temperature ~16 h, SDS-PAGE.

Experimental for GalacTag5_fHbp: as §1
Experimental for GalacTag6_fHbp (N636A): as §2
Experimental for GalacTag7_fHbp: as §1

B1: GalacDock7 with MHHHHHHS leader (designed binder)
chain: MHHHHHHSNTETKPQVDKNFADKELDYANNKKDKGTVSASVGDVKKYHVGTKILKGSDYKKLIWTDSMTKGLTFNNDIAVTLDGATLDATNYKLVADDQGFRLVLTDKGLEAVAKAAKTKDVEIKITYSATLNGSAVVEVLETNDVKLDYGNNPTIENEPKEGIPVDKKITVNKTWAVDGNEVNKADETVDAVFTLQVKDGDKWVNVDSAKATAATSFKHTFENLDNAKTYRVIERVSGYAPEYVSFVNGVVTIKNNKDSNEPTPINPSEPKVVTYGRKFVKTNKDGKERLAGATFLVKKDGKYLARKSGVATDAEKAAVDSTKSALDAAVKAYNDLTKEKQEGQDGKSALATVSEKQKAYNDAFVKANYSYEWVEDKNAKNVVKLISNDKGQFEITGLTEGQYSLEETQAPTGYAKLSGDVSFNVNATSYSKGSAQDIEYTQGSKTKDA
In the case of B1, the binding result with GalacTag7_fHbp is listed as “no binding (tested: 1:1 molar ratio)”.

B2: GalacDock6 with MHHHHHHS leader (designed binder)
chain: MHHHHHHSNTETKPQVDKNFADKELDYANNKKDKGTVSASVGDVKKYHVGTKILKGSDYKKLIWTDSMTKGLTFNNDIAVTLDGATLDATNYKLVADDQGFRLVLTDKGLEAVAKAAKTKDVEIKITYSATLNGSAVVEVLETNDVKLDYGNNPTIENEPKEGIPVDKKITVNKTWAVDGNEVNKADETVDAVFTLQVKDGDKWVNVDSAKATAATSFKHTFENLDNAKTYRVIERVSGYAPEYVSFVNGVVTIKNNKDSNEPTPINPSEPKVVTYGRKFVKTNKDGKERLAGATFLVKKDGKYLARKSGVATDAEKAAVDSTKSALDAAVKAYNDLTKEKQEGQDGKSALATVSEKQKAYNDAFVKANYSYEWVEDKNAKNVVKLISNDKGQFEITGLTEGQYSLEETQAPTGYAKLSGDVSFNVN
notes: It forms a covalent isopeptide bond with GalacTag6; also called GalacDoc6; GlacDock6
Take B2: the binding result in test [1] is given as “binds”; in test [2], “binds”; in the test with GalacTag6_fHbp [3], “binds”; in test [4], “binds”; with GalacTag6_fHbp (N636A) it was “no binding (tested: 1:1 molar ratio)”; in the test with GalacTag7_fHbp, “no binding (tested: 1:1 molar ratio)”.

B3: GalacDock6 variant E589A (designed binder)
chain: MHHHHHHSNTETKPQVDKNFADKELDYANNKKDKGTVSASVGDVKKYHVGTKILKGSDYKKLIWTDSMTKGLTFNNDIAVTLDGATLDATNYKLVADDQGFRLVLTDKGLEAVAKAAKTKDVEIKITYSATLNGSAVVEVLETNDVKLDYGNNPTIENEPKEGIPVDKKITVNKTWAVDGNEVNKADETVDAVFTLQVKDGDKWVNVDSAKATAATSFKHTFENLDNAKTYRVIERVSGYAPEYVSFVNGVVTIKNNKDSNEPTPINPSEPKVVTYGRKFVKTNKDGKERLAGATFLVKKDGKYLARKSGVATDAEKAAVDSTKSALDAAVKAYNDLTKEKQEGQDGKSALATVSEKQKAYNDAFVKANYSYEWVEDKNAKNVVKLISNDKGQFEITGLTEGQYSLEATQAPTGYAKLSGDVSFNVN
In the case of B3, in the test with GalacTag6_fHbp [5], the binding result is given as “no binding (tested: 1:1 molar ratio)”.

B4: GalacDock6 variant E589Q (designed binder)
chain: MHHHHHHSNTETKPQVDKNFADKELDYANNKKDKGTVSASVGDVKKYHVGTKILKGSDYKKLIWTDSMTKGLTFNNDIAVTLDGATLDATNYKLVADDQGFRLVLTDKGLEAVAKAAKTKDVEIKITYSATLNGSAVVEVLETNDVKLDYGNNPTIENEPKEGIPVDKKITVNKTWAVDGNEVNKADETVDAVFTLQVKDGDKWVNVDSAKATAATSFKHTFENLDNAKTYRVIERVSGYAPEYVSFVNGVVTIKNNKDSNEPTPINPSEPKVVTYGRKFVKTNKDGKERLAGATFLVKKDGKYLARKSGVATDAEKAAVDSTKSALDAAVKAYNDLTKEKQEGQDGKSALATVSEKQKAYNDAFVKANYSYEWVEDKNAKNVVKLISNDKGQFEITGLTEGQYSLEQTQAPTGYAKLSGDVSFNVN
On to B4, for which the binding result with GalacTag6_fHbp [5] is reported as “no binding (tested: 1:1 molar ratio)”.

B5: GalacDock6 variant K463A (designed binder)
chain: MHHHHHHSNTETKPQVDKNFADKELDYANNKKDKGTVSASVGDVKKYHVGTKILKGSDYKKLIWTDSMTKGLTFNNDIAVTLDGATLDATNYKLVADDQGFRLVLTDKGLEAVAKAAKTKDVEIKITYSATLNGSAVVEVLETNDVKLDYGNNPTIENEPKEGIPVDKKITVNKTWAVDGNEVNKADETVDAVFTLQVKDGDKWVNVDSAKATAATSFKHTFENLDNAKTYRVIERVSGYAPEYVSFVNGVVTIKNNKDSNEPTPINPSEPKVVTYGRKFVATNKDGKERLAGATFLVKKDGKYLARKSGVATDAEKAAVDSTKSALDAAVKAYNDLTKEKQEGQDGKSALATVSEKQKAYNDAFVKANYSYEWVEDKNAKNVVKLISNDKGQFEITGLTEGQYSLEETQAPTGYAKLSGDVSFNVN
For the molecule B5, in the test with GalacTag6_fHbp [5], the binding result is “no binding (tested: 1:1 molar ratio)”.

B6: GalacDock5 with MHHHHHHS leader (designed binder)
chain: MHHHHHHSNVVTDEPKTDKDVKKLGQDDAGYTIGEEFKWFLKSTIPANLGDYEKFEITDKFADGLTYKSVGKIKIGSKTLNRDEHYTIDEPTVDNQNTLKITFKPEKFKEIAELLKGMTLVKNQDALDKATANTDDAAFLEIPVASTINEKAVLGKAIENTFELQYDHTPDKADNPKPSNPPRKPEVHTGGKRFVKKDSTETQTLGGAEFDLLASDGTAVKWTDALIKANTNKNYIAGEAVTGQPIKLKSHTDGTFEIKGLAYAVDANAEGTAVTYKLKETKAPEGYVIPDKEIEFTVSQTSYNTKPTDITVDSAD
notes: Expressed in E. coli and purified on a HisTrap HP column
As for B6, the binding result in the test with GalacTag5_fHbp is given as “no binding (tested: 1:1 molar ratio)”.

These data come from US20230250142A1 (GlaxoSmithKline, published 2023).
